Test results as given in patent US20240132615A1 (ICHNOS SCIENCES, published 2024).
Numbering of substitutions follows the chain as printed.

T1: human BCMA on cells (NCI-H929, NCI-H929 CD38 KO, MOLP-8) (human, UniProt Q02223 1-184)
T1 construct: whole, on cells; endogenous BCMA of myeloma cell lines
T1 sequence (looked up): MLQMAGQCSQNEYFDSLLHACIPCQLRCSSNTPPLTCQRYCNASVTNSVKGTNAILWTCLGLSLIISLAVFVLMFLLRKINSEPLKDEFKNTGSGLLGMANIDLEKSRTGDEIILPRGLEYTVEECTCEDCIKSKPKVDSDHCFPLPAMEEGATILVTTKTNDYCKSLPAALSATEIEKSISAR

T2: recombinant human BCMA Fc fusion protein (Acrobiosystems BC7-H5254 / BCA-H5254) (human, UniProt Q02223 1-54)
T2 construct: also called recombinant BCMA-Fc protein; not shown: Fc of the bought fusion protein, not described
T2 sequence (looked up): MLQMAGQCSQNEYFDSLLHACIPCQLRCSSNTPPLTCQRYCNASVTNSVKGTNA

B1: Anti-CD3-C1-UCP01-B9 IgG1LALA (antibody, V domains shown)
VH: QVQLVQSGAEVKKPGSSVKVSCKASGGKFSRYAISWVRQAPGQGLEWMGGINAPVVRSPEYAQKFQGRVTITADESTSTAYMELSSLRSEDTAVYYCARYGYSLYMDIWGQGTLVTVSS
VL: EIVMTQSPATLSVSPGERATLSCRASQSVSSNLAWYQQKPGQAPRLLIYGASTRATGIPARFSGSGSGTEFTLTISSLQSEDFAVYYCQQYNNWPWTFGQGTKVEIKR
notes: IgG1 LALA
B2: Anti-CD3-C1-UCP01-E6 IgG1LALA (antibody, V domains shown)
VH: B1 VH with N52T, A53P, V55H, R57G, S58I, P59A, E60D
VL: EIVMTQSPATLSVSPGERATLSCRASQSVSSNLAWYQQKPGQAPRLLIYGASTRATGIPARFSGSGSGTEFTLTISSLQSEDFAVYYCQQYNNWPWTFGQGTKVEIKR
notes: IgG1 LALA
B3: Anti-CD3-C1-UCP01-E10 IgG1LALA (antibody, V domains shown)
VH: QVQLVQSGAEVKKPGSSVKVSCKASGGKFSRYAISWVRQAPGQGLEWMGGISPFEGTPAYAQKFQGRVTITADESTSTAYMELSSLRSEDTAVYYCARYGYSLYMDIWGQGTLVTVSS
VL: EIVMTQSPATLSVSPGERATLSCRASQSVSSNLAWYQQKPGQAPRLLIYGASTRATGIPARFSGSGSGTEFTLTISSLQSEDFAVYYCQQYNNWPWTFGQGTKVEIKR
notes: IgG1 LALA; also called anti-CD3-C1-E10
B4: Anti-CD3-C1-UCP01-E11 IgG1LALA (antibody, V domains shown)
VH: B3 VH with S52N, E55K, T57D, P58A, A59E
VL: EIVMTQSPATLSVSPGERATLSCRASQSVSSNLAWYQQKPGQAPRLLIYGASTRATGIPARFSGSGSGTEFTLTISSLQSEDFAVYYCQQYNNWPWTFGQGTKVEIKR
notes: IgG1 LALA
B5: Anti-CD3-C1-UCP01-F12 IgG1LALA (antibody, V domains shown)
VH: B3 VH with E55R, T57H, P58A, A59E
VL: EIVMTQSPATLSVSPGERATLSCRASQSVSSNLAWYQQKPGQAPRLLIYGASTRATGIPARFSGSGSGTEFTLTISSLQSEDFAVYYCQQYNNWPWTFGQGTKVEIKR
notes: IgG1 LALA
B6: Anti-CD3-C1-UCP01-H10 IgG1LALA (antibody, V domains shown)
VH: B3 VH with F54L, E55V, T57Y, A59Q
VL: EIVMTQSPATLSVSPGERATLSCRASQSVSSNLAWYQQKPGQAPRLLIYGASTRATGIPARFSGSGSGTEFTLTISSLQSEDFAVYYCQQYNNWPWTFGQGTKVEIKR
notes: IgG1 LALA; also called anti-CD3-C1-H10
B7: Anti-CD3-C1-UCP01-F1 IgG1LALA (antibody, V domains shown)
VH: B3 VH with S52N, F54R, E55L, T57Q, P58A, A59E
VL: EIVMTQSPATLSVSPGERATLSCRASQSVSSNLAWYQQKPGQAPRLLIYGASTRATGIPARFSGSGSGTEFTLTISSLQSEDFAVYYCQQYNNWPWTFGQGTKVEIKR
notes: IgG1 LALA
B8: Anti-CD3-C1-UCP01-E12 IgG1LALA (antibody, V domains shown)
VH: B3 VH with S52N, F54L, E55V, T57H, P58A, A59E
VL: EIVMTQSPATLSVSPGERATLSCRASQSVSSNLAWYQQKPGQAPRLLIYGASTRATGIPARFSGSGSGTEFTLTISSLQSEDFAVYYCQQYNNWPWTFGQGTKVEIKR
notes: IgG1 LALA; also called anti-CD3-C1-E12
B9: Anti-CD3-C1-UCP01-G12 IgG1LALA (antibody, V domains shown)
VH: B3 VH with E10K, F54H, E55I, T57H, A59E
VL: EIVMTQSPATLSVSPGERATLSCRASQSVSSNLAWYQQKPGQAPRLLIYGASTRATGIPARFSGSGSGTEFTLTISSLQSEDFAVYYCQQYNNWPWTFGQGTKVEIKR
notes: IgG1 LALA
B10: Anti-CD3-C1-UCP01-F10 IgG1LALA (antibody, V domains shown)
VH: B3 VH with S52N, F54H, E55I, G56R, T57F, A59E
VL: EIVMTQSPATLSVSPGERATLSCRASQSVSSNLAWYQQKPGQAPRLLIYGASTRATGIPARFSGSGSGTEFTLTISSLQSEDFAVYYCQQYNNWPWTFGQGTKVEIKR
notes: IgG1 LALA; also called anti-CD3-C1-F10
B11: Anti-CD3-C1-UCP02-E1 IgG1LALA (antibody, V domains shown)
VH: B3 VH with E55K, T57Y, P58A, A59E
VL: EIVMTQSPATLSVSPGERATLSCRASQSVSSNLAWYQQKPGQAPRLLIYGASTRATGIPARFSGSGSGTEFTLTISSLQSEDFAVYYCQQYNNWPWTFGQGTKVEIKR
notes: IgG1 LALA
B12: Anti-BCMA-D3-MP04-A2 FAB (Fab, V domains shown)
VH: EVQLVESGGGLIQPGGSLRLSCAASGFIFSHYEMNWVRQAPGKGLEWVSAIGQQGGNTVYADSVKGRFTISRDNSKNTLYLQMNSLRAEDTAVYYCARVPYSYSGYSGADIWGQGTLVTVSS
VL: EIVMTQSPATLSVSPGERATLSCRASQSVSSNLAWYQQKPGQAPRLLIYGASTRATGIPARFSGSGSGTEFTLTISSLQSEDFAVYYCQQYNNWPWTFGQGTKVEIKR
notes: Fab
B13: Anti-BCMA-D3-MP04-C2 FAB (Fab, V domains shown)
VH: B12 VH with Q54F
VL: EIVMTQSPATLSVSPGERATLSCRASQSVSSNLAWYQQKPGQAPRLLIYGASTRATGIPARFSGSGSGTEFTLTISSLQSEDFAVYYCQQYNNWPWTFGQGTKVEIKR
notes: Fab
B14: Anti-BCMA-D3-MP04-C8a FAB (Fab, V domains shown)
VH: B12 VH with Q54M, G56F, N57G, V59L, S63N
VL: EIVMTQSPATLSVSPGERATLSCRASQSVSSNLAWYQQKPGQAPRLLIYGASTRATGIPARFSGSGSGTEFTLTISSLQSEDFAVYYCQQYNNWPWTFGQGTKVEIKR
notes: Fab
B15: Anti-BCMA-D3-MP03-G7 FAB (Fab, V domains shown)
VH: B12 VH with A50I, Q54R, G56H, N57T, V59E
VL: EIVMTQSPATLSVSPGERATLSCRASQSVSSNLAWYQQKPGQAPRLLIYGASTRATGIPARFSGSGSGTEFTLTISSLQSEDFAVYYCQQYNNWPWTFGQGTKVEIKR
notes: Fab
B16: Anti-BCMA-D3-MP05-C1a FAB (Fab, V domains shown)
VH: EVQLVESGGGLIQPGGSLRLSCAASGFIFSHYEMNWVRQAPGKGLEWVSAIGQGGNTVYADSVKGRFTISRDNSKNTLYLQMNSLRAEDTAVYYCARVPYSYMGYAGADIWGQGTLVTVSS
VL: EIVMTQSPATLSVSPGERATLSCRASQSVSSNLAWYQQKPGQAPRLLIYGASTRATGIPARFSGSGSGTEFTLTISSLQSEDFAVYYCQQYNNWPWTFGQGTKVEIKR
notes: Fab
B17: Anti-BCMA-D3-MP05-C1b FAB (Fab, V domains shown)
VH: B16 VH with M103I
VL: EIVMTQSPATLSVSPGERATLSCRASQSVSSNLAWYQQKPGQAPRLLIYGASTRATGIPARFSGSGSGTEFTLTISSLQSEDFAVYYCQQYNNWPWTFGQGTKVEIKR
notes: Fab
B18: Anti-BCMA-D3-MP04-B11d FAB (Fab, V domains shown)
VH: B16 VH with G54V, G55A, N56A, T57E, M103S, A106S
VL: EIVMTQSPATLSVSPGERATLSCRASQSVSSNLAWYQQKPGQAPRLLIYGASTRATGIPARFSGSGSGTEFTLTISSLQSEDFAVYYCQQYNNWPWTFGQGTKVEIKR
notes: Fab
B19: Anti-BCMA-D3-MP05-A9 FAB (Fab, V domains shown)
VH: B16 VH with M103A, A106S
VL: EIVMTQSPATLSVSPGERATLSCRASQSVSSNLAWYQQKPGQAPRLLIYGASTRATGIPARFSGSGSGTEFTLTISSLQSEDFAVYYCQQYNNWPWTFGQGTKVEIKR
notes: Fab

Biological target: T3, human CD3 on cells (HPB-ALL cells, primary human T cells) (human, UniProt P07766 23-207)
T3 construct: whole, on cells; only the epsilon chain is written
Assay: flow cytometry, human CD4+ T cells

T3 sequence (P07766 23-207): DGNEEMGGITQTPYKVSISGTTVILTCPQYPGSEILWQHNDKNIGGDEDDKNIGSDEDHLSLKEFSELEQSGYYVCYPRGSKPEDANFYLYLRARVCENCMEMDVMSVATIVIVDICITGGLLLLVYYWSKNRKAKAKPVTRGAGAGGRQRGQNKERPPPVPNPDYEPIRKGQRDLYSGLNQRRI

Binder | MFI at 800 nM [MFI]
B1 | 108000
B2 | 231000
B3 | 100000
B4 | 91800
B5 | 108000
B6 | 151000
B7 | 81300
B8 | 149000
B9 | 121000
B10 | 150000
B11 | 151000

Biological target: T1, human BCMA on cells (NCI-H929, NCI-H929 …)
Assay: flow cytometry, NCI-H929 cells, one-site fit

Binder | Kd [nM]
B12 | 7.68
B13 | 6.49
B14 | 3.65
B15 | 29.5

Biological target: T2, recombinant human BCMA Fc fusion …
Assay: SPR, Fab as analyte, captured human BCMA-Fc

Binder | Kd [nM]
B16 | 1.03
B17 | 2.22
B18 | 5.43
B19 | 2.3
B12 | 0.03
B13 | 0.03
B14 | 0.09
B15 | 0.41

Biological target: T1, human BCMA on cells (NCI-H929, NCI-H929 …)
Assay: flow cytometry, NCI-H929 cells

Binder | Maximum binding (RFI)
B12 | 21500
B13 | 24600
B14 | 26500
B15 | 21500

Biological target: T4, recombinant cynomolgus monkey BCMA Fc fusion protein (Acrobiosystems BCA-C5253) (cynomolgus monkey, UniProt A0A2K5UD97 1-53)
T4 construct: bought protein; not shown: Fc of the bought fusion protein, not described
Assay: SPR, Fab as analyte, captured cynomolgus BCMA-Fc

T4 sequence (A0A2K5UD97 entry or part of it): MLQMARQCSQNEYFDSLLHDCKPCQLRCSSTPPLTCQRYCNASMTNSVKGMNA

Binder | Kd [nM]
B16 | 1.03
B17 | 5.86
B18 | 4.85
B19 | 6.54
B12 | 0.01
B13 | 0.02
B14 | 0.17
B15 | 0.31
